“Also recorded” adds a separate entry of the source.
B1: HGS-ETR2 (antibody, INN chains, looked up, V domains shown)
VH: EVQLVQSGGGVERPGGSLRLSCAASGFTFDDYGMSWVRQAPGKGLEWVSGINWNGGSTGYADSVKGRVTISRDNAKNSLYLQMNSLRAEDTAVYYCAKILGAGRGWYFDLWGKGTTVTVSS
VL: SSELTQDPAVSVALGQTVRITCQGDSLRSYYASWYQQKPGQAPVLVIYGKNNRPSGIPDRFSGSSSGNTASLTITGAQAEDEADYYCNSRDSSGNHVVFGGGTKLTVL
B2: TRAIL.R1-5: 6His TRAIL 95-281 with 193Ser, 199Val, 201Arg, 213Trp and 215Asp (protein)
chain: TSEETISTVQEKQQNISPLVRERGPQRVAAHITGTRGRSNTLSSPNSKNEKALGRKINSWESSRSGHSFLSNLHLRNGELVIHEKGFYYIYSQTYFRFSEEIKEVTRNDKQMVQYIYKWTDYPDPILLMKSARNSCWSKDAEYGLYSIYQGGIFELKENDRIFVSVTNEHLIDMDHEASFFGAFLVG
modifications: biotin (site not stated) in the DISC analysis only; not biotinylated in the apoptosis assays
notes: 6His TRAIL 95-281 with 193Ser, 199Val, 201Arg, 213Trp and 215Asp

Experiments:
[1] = biological target: TRAIL receptor 2 (TRAIL-R2) (Homo sapiens (Human)) (UniProt O14763)
Jurkat cells [2] = test: Apoptosis by phosphatidylserine (PS) externalization in Jurkat cells; assay type: cell-based; conditions: for inhibition of induced apoptosis by TRAIL-R1 blocking Ab: 30 min pre-incubation with Ab (5 μg ml^−1); for ability to induce apoptosis in Jurkat cells (in words): PS externalization, compared with wt TRAIL
Description: Cells were also exposed to HGS-ETR1 or HGSETR2 (1 μg ml^−1). C: Ramos or Jurkat cells were pre-incubated for 30 min either alone or with TRAIL-R1 blocking Ab or TRAIL-R2 neutralizing Ab (5 μg ml^−1). […] D: Ramos and Jurkat cells were exposed to wt TRAIL or TRAIL mutants as described above and processing of caspase-3 and -8 determined by Western blot analysis. The asterisk indicates a non-specific band. The lower panel of the blot for detection of the caspase-8 p18 subunit was exposed for twice as long as the upper panel. Apoptosis was assessed by phosphatidylserine externalization and results expressed as the Means±SEM of at least 3 separate determinations. […]
(§1) Apoptosis was quantified by phosphatidylserine (PS) externalization in the presence of propidium iodide as described (MacFarlane et al., 2002 ibid.). Samples for Western blot analysis were prepared and caspase processing detected as described (Inoue et al., 2004 ibid.; MacFarlane et al., 2005 ibid.).
Ramos and Jurkat T cells (clone E6-1) were cultured as described (MacFarlane et al, 2005 ibid.). The breast tumour cell line, MCF-7 (clone F43) was cultured as described previously (MacFarlane et al., 2000 J. Cell Biol. 148, 1239-1254). Cells were cultured for either 4 h (Ramos and Jurkat) or 6 h (MCF-7) with His-TRAIL (MacFarlane et al, 1997 J Biol Chem 272, 25417-25420), HGS-ETR1 or HGS-ETR2 (Human Genome Sciences), or a mutant form of His-TRAIL (MacFarlane et al, 2005 ibid.). Samples were analyzed for apoptosis, Western blotting, or TRAIL DISC activation as described (MacFarlane et al, 2005 ibid.; MacFarlane et al. 2002 Oncogene 21, 6809-6818). Mutants of His-TRAIL (residues 95-281) were generated using the Quik-Change site-directed mutagenesis kit (Stratagene, Calif.), confirmed by DNA sequencing, expressed in E. coli and purified as described (MacFarlane et al, 1997 ibid.). For siRNA targeting of TRAIL-R1/-R2, MCF-7 cells were seeded into six-well plates immediately prior to effectene-mediated RNAi transfection with either a negative control siRNA (30 nM, Ambion, #4611), or preannealed siRNA oligonucleotides for TRAIL-R1 or TRAIL-R2 (30 nM, Ambion), with the sequence and validity described (Ren et al, 2004 Mol. Biol. Cell vol 15 pp 5064-5074). After 40 h of transfection the cells were collected and total TRAIL-R1 or TRAIL-R2 levels assessed. Where indicated, RNAi transfected MCF-7 cells were either left untreated or exposed to wt-TRAIL and apoptosis assessed by the extent of Bax activation, determined using the conformation specific Bax MAb, clone 3 (Dewson et al, 2003 Oncogene vol 22 pp 2643-54).

Jurkat cells [3] = test: Caspase-8 and -3 processing by Western blot in Jurkat cells; assay type: cell-based; conditions: FIG. 1D
Description: Cells were also exposed to HGS-ETR1 or HGSETR2 (1 μg ml^−1). C: Ramos or Jurkat cells were pre-incubated for 30 min either alone or with TRAIL-R1 blocking Ab or TRAIL-R2 neutralizing Ab (5 μg ml^−1). […] D: Ramos and Jurkat cells were exposed to wt TRAIL or TRAIL mutants as described above and processing of caspase-3 and -8 determined by Western blot analysis. The asterisk indicates a non-specific band. The lower panel of the blot for detection of the caspase-8 p18 subunit was exposed for twice as long as the upper panel. Apoptosis was assessed by phosphatidylserine externalization and results expressed as the Means±SEM of at least 3 separate determinations.
as §1
To confirm that the mutants were inducing apoptosis, we examined their effects on the processing of caspase-8, the apical caspase in death receptor-induced apoptosis and caspase-3, an effector caspase.

[4] = tested on: TRAIL DISC in Jurkat cells; test: DISC analysis with biotinylated TRAIL in Jurkat cells; assay type: cell-based; conditions: biotinylated ligand 500 ng ml^−1, 30 min
Description: After exposure of the cells for 30 min, DISC complexes were isolated and analyzed for the indicated proteins by Western blotting. To provide an unstimulated receptor control (u/s), biotinylated wt or mutant TRAIL was added to lysate from untreated cells. C: Freshly isolated cells from patients with CLL were incubated for 16 h either alone or in the presence of depsipeptide (10 nM). […] The different symbols used indicate data from six individual patients and the solid line indicates the Mean.
Ramos or Jurkat cells (5×10^7 cells per treatment) were exposed to biotin-tagged recombinant His-TRAIL (biotinylated TRAIL) or one of its mutant forms (500 ng ml^−1) for 30 min and then DISC formation assessed as described previously (MacFarlane et al., 2002 ibid.).

apoptosis of primary MCL cells after depsipeptide (5 nM, 16 h) [1] [%]	Molecule	inhibition of induced apoptosis by TRAIL-R1 blocking Ab (Jurkat cells [2])	ability to induce apoptosis in Jurkat cells (in words) (Jurkat cells [2])	processing of caspases-8 and -3 (Jurkat cells [3])	DISC formation: receptor bound, FADD and caspase-8 recruitment [4]	concentration-response of apoptosis compared with wt TRAIL (Jurkat cells [2]; 4 h, FIG. 1A)	% PS+ cells, Jurkat (Jurkat cells [2]; 4 h exposure, 500 ng ml^−, Mean ± SEM of at least three determinations) [%]
38.3	B1	not	potently induced apoptosis	most potent	–	–	–
–	B2	blocked	lost much of its activity; also recorded: low levels of apoptosis	small amount of caspase processing	bound small amounts of both TRAIL-R1 and -R2	much less active than wt TRAIL	20.0 ± 2.3

Source: patent publication US20090325867A1, “RECEPTOR-SPECIFIC TUMOUR NECROSIS FACTOR-RELATED APOPTOSIS-INDUCING LIGAND (TRAIL) VARIANTS” (MEDICAL RESEARCH COUNCIL, priority 2005, published 2009)
